Data as given in patent publication US20200325232A1 (INNATE PHARMA, published 2020).

B1: NKp46-3 (antibody, V domains shown)
VH: EVQLQQSGPELVKPGASVKISCKTSGYTFTEYTMHWVKQSHGKSLEWIGGISPNIGGTSYNQKFKGKATLTVDKSSSTAYMELRSLTSEDSAVYYCARRGGSFDYWGQGTTLTVSS
VL: DIVMTQSPATLSVTPGDRVSLSCRASQSISDYLHWYQQKSHESPRLLIKYASQSISGIPSRFSGSGSGSDFTLSINSVEPEDVGVYYCQNGHSFPLTFGAGTKLELK
notes: Mouse hybridoma antibody (Balb/c immunisation); also called anti-NKp46 (NKp46-3)
B2: CD19-F18-NKp46-1 (bispecific antibody)
chain 1: not shown
chain 2: not shown
chain 3: DIQMTQTTSSLSASLGDRVTISCRASQDISNYLNWYQQKPDGTVKLLIYYTSRLHSGVPSRFSGSGSGTDYSLTINNLEQEDIATYFCQQGNTRPWTFGGGTKLEIKASTKGPSVFPLAPSSKSTSGGTAALGCLVKDYFPEPVTVSWNSGALTSGVHTFPAVLQSSGLYSLSSVVTVPSSSLGTQTYICNVNHKPSNTKVDKRVEPKSCDKTH
B3: CD19-F19-NKp46-1 (bispecific antibody, human IgG1, kappa)
chain 1: not shown
chain 2: not shown
chain 3: DIQMTQTTSSLSASLGDRVTISCRASQDISNYLNWYQQKPDGTVKLLIYYTSRLHSGVPSRFSGSGSGTDYSLTINNLEQEDIATYFCQQGNTRPWTFGGGTKLEIKASTKGPSVFPLAPSSKSTSGGTAALGCLVKDYFPEPVTVSWNSGALTSGVHTFPAVLQSSGLYSLSSVVTVPSSSLGTQTYICNVNHKPSNTKVDKRVEPKSCDKTH
B4: CD19-F20-NKp46-1 (bispecific antibody, human IgG1, kappa)
chain 1: not shown
chain 2: not shown
chain 3: DIQMTQTTSSLSASLGDRVTISCRASQDISNYLNWYQQKPDGTVKLLIYYTSRLHSGVPSRFSGSGSGTDYSLTINNLEQEDIATYFCQQGNTRPWTFGGGTKLEIKASTKGPSVFPLAPSSKSTSGGTAALGCLVKDYFPEPVTVSWNSGALTSGVHTFPAVLQSSGLYSLSSVVTVPSSSLGTQTYICNVNHKPSNTKVDKRVEPKSCDKTH

Columns and labels:
human NKp46 = target: T1, human NKp46 (human, UniProt O76036 22-304); test: flow cytometry screen of Example 1 on a cell line expressing human NKp46
T1 construct: The screen used a cell line expressing 'the human NKp46 construct' at the cell surface; In the lysis assays NKp46 is on fresh human NK cells; also called huNKp46; NKp46 receptor
T1 sequence (O76036 22-304 Q82K limits assumed): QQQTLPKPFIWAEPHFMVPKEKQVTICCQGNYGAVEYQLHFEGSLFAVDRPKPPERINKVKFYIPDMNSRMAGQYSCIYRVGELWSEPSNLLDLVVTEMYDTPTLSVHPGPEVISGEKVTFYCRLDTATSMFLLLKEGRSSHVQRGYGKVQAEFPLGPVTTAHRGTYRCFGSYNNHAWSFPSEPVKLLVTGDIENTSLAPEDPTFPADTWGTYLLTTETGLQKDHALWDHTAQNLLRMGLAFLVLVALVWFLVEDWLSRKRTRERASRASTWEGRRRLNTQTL
Method: Primary screen: Supematant (SN) of growing clones were tested in a primary screen by flow cytometry using a cell line expressing the human NKp46 construct at the cell surface.

CD19 = target: T2, CD19 (UniProt P15391 20-556, limits assumed); test: cell-based or functional assay
T2 sequence (looked up): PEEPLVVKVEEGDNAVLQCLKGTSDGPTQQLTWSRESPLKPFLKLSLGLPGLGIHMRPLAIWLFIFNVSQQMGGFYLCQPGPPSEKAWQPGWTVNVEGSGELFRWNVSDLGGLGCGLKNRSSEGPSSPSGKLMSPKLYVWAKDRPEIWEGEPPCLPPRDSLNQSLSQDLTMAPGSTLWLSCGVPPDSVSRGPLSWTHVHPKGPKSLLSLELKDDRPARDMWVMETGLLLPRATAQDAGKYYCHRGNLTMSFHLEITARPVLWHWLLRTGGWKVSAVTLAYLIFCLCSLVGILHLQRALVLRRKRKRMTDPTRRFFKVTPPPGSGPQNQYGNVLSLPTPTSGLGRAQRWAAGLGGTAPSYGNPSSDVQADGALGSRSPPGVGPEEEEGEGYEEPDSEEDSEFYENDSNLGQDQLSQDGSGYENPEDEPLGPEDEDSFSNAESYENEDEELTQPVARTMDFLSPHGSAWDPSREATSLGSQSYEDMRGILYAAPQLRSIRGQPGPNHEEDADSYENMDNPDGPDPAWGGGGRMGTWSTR

Binder	binding result (human NKp46)	EC50 of Daudi target cell lysis by NK cells (4-h 51Cr-release assay) (CD19)
B1	binds	–
B2	–	~1 picomolar
B3	–	~1 picomolar
B4	–	~1 picomolar
